These results are taken from publication PMC4346194.

Experiment [1] deals with GST-tagged FL-importin α7 (human) (UniProt O60684). Description: pull-down.
Experiment [2] concerns the target GST-tagged FL-importin α1 (mouse) (UniProt P52293). Description: pull-down.

For the substance “MBP-tagged PB2-NLD-K718A (from UniProt P31345 678-759) (domain or fragment)”, the percent of importin α bound to cargo in experiment [1] was found to be 43%; in experiment [2], 20%.
